Target: PTH-1 receptor (human) (UniProt Q03431)
Experiment: cell-based or functional assay

Chain of UniProt Q03431 (Q03431 27-593): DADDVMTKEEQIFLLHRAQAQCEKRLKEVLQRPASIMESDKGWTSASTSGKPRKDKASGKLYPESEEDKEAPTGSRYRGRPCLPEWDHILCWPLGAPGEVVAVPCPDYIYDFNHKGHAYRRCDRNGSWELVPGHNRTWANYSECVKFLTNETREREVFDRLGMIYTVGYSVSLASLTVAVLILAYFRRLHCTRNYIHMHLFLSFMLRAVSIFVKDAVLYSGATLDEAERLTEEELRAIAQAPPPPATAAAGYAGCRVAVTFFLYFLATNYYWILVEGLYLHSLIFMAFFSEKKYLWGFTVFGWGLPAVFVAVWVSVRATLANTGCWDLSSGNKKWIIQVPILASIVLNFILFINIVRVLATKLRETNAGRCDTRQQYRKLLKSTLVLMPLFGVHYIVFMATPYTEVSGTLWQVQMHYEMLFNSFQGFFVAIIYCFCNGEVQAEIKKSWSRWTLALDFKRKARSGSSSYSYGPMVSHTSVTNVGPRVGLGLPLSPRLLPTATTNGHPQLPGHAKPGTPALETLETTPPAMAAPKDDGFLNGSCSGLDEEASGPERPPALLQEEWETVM

**Q.** How did the intracellular cAMP levels in hOB-01-C1-PS-09 cells preincubated 48 hr at 39 C, treated 10 min at 37 C turn out when “human PTH 1-34 (from UniProt P01270 32-65) (peptide)” was run?
**A.** Its intracellular cAMP levels in hOB-01-C1-PS-09 cells preincubated 48 hr at 39 C, treated 10 min at 37 C is 5 to 6 fold.

Source: patent US20040115195A1
